From article PMC10320429

B1: PIK3CA_E542K epitope peptide … (peptide)
peptide: ISTRDPLSK
B2: KRAS_G12C epitope peptide … (peptide)
peptide: VVGACGVGK
B3: KRAS_G13D epitope peptide … (peptide)
peptide: VVVGAGDVGK
B4: KRAS_G12S epitope peptide … (peptide)
peptide: VVGASGVGK
B5: PIK3CA_E542K epitope peptide … (peptide)
peptide: KAISTRDPLSK
B6: KRAS_G12A epitope peptide … (peptide)
peptide: VVGAAGVGK
B7: TP53_G245S epitope peptide … (peptide)
peptide: SSCMGSMNR
B8: KRAS_G13D epitope peptide … (peptide)
peptide: VVGAGDVGK

The binders below were run against HLA-A*11:01 on TAP2-KO HLA class I monoallelic TISI cells (human | human (endogenous in TISI)) (assay: flow cytometry on cells).

ΔHLA (% control) [%] | Binder
124 | B1
234 | B2
195 | B3
219 | B4
127 | B5
218 | B6
107 | B7
181 | B8
